We go through two molecules from patent US20180318419A1 (YALE UNIVERSITY, published 2018).

Experiment [1] concerns the target T1, human myelin-associated glycoprotein (MAG) (human, UniProt P20916 20-626).
T1 construct: Expressed on transfected HEK293T cells from the human membrane gene library; also called Siglec 4; human MAG
T1 sequence: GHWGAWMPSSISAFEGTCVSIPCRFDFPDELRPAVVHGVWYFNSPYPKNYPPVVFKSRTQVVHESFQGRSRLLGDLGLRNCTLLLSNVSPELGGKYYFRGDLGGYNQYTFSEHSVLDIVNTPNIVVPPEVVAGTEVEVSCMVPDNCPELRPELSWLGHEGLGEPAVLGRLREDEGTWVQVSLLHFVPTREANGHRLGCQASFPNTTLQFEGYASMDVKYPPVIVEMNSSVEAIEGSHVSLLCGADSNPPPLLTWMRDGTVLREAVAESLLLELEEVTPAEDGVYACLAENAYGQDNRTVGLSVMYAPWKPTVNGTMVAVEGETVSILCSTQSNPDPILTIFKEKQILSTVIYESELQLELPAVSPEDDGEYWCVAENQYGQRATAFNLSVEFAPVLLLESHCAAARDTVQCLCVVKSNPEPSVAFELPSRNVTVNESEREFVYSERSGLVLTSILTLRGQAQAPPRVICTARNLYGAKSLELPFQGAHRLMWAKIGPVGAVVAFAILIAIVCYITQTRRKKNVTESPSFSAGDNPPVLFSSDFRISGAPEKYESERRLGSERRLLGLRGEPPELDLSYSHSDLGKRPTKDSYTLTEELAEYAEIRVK
The experiment in a line: genome-scale human receptor array; transfected HEK293T cells, anti-Fc FMAT blue secondary antibody. The source says: (§1) To identify the ligand for Siglec 15, a Siglec 15-Fc fusion protein was generated by fusing the extracellular domain of each molecule with a mouse or human Fc tag (Dong H, et al., Nat Med. 1999; 5(12): 1365-9) and screened in the newly established genome scale human receptor array (Yao, S et al., Immunity 2011, 34(5):729-40). Briefly, the complete human membrane gene library containing over 6,200 genes was collected, maintained, and diluted by OPTI-MEM media and placed individually into four 1,536-well plates at 40 ng/well, through a robotic system. Lipofectamine 2000 was added to each well and mixed with plasmids for 30 minutes. Two thousand HEK293T cells were added subsequently to each well to perform transient transfection. Eight hours after transfection, 10 ng of human Siglec 15-Fc and anti-Fc FMAT blue secondary antibody were added to each well. The plates were read 24 hours after transfection using the Applied Biosystems 8200 cellular detection system and analyzed using the CDS 8200 software. Human Fc Receptor genes served as internal positive controls for the assay.

The target of experiment [2] is T2, human leucine rich repeat containing 4C (LRRC4C) (human, UniProt Q9HCJ2 45-640).
T2 construct: also called human LRRC4; NGL1
T2 sequence: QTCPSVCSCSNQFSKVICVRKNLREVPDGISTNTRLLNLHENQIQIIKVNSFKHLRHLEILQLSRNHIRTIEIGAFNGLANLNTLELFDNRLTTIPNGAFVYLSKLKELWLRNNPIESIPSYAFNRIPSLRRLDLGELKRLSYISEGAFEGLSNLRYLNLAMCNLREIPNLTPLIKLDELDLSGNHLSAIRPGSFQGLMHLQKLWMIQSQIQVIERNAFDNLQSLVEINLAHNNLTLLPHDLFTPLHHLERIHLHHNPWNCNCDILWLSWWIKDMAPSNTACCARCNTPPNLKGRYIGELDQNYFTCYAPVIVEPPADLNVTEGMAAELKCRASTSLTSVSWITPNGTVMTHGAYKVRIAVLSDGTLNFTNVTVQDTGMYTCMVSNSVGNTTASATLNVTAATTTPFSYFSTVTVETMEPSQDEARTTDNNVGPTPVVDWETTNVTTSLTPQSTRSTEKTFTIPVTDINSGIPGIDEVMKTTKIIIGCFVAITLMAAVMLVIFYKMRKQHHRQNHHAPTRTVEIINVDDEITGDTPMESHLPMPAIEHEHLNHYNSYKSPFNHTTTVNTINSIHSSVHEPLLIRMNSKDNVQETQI
The experiment is described as above.
Excerpt: as §1

The target of experiment [3] is T3, LRRC4C (species not stated) (Homo sapiens (Human), UniProt Q9HCJ2 45-640, limits assumed).
T3 construct: also called leucine rich repeat containing 4C
T3 sequence: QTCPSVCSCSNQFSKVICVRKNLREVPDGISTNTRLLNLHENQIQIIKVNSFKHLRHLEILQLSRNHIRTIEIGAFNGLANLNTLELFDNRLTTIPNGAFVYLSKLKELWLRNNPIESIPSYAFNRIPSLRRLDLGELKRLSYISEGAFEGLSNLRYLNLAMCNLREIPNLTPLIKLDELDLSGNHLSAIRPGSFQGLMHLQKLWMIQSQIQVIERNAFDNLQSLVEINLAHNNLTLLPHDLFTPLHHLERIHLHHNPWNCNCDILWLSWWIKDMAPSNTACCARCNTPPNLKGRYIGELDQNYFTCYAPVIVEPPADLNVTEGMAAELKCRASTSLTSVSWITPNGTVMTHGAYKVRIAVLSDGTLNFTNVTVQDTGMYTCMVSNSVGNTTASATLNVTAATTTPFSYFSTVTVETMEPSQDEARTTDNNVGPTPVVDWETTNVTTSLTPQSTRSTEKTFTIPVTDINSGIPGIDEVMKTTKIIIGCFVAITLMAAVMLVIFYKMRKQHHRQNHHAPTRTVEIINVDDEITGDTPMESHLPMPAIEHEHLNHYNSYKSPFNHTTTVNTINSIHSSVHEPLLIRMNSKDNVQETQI
Kind of experiment: binding of Siglec 15 point mutant, FIG. 7.

The next experiment deals with T4, MAG (species not stated) (Homo sapiens (Human), UniProt P20916 20-626, limits assumed).
T4 construct: also called myelin-associated glycoprotein
T4 sequence: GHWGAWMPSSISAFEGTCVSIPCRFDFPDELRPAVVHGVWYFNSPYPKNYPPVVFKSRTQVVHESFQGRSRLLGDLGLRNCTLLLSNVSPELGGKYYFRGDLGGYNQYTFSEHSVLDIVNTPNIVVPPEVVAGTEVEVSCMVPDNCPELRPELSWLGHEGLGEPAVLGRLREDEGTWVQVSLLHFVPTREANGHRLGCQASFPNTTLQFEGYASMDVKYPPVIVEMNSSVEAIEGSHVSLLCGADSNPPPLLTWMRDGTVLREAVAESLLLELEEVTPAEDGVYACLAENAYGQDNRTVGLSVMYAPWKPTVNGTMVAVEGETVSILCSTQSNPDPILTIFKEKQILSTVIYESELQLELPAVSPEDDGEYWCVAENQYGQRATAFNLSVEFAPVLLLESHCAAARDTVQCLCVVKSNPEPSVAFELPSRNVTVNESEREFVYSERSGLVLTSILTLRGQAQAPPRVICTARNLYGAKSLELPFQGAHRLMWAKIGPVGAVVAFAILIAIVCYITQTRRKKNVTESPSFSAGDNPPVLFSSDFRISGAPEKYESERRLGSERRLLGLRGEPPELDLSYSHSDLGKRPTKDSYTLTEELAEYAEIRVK
The experiment in a line: binding of Siglec 15 point mutant, FIG. 7.

B1: human Siglec 15-Fc fusion protein (Fc fusion)
chain: FVRTKIDTTENLLNTEVHSSPAQRWSMQVPPEVSAEAGDAAVLPCTFTHPHRHYDGPLTAIWRAGEPYAGPQVFRCAAARGSELCQTALSLHGRFRLLGNPRRNDLSLRVERLALADDRRYFCRVEFAGDVHDRYESRHGVRLHVTAAPRIVNISVLPSPAHAFRALCTAEGEPPPALAWSGPALGNSLAAVRSPREGHGHLVTAELPALTHDGRYTCTAANSLGRSEASVYLFRFHGASGAST
notes: not shown: mouse or human Fc tag
As for B1, the binding result in experiment [1] and in experiment [2] was “binds” in each case.

B2: Siglec 15 R143A mutant (other)
chain: FVRTKIDTTENLLNTEVHSSPAQRWSMQVPPEVSAEAGDAAVLPCTFTHPHRHYDGPLTAIWRAGEPYAGPQVFRCAAARGSELCQTALSLHGRFRLLGNPRRNDLSLRVERLALADDRRYFCAVEFAGDVHDRYESRHGVRLHVTAAPRIVNISVLPSPAHAFRALCTAEGEPPPALAWSGPALGNSLAAVRSPREGHGHLVTAELPALTHDGRYTCTAANSLGRSEASVYLFRFHGASGAST
notes: also called R143A mutation
As to B2, the binding result (in experiment [3]; with MAG (species not stated)) was “no binding” each time.
